In data set [1] the test system is MS2 coat protein. The experiment in a line: apparent KD of MS2 coat protein, switch ON state; designed switch direction (-1 OFF switch, 1 ON switch): -1; higher = weaker reporter binding. The conditions noted are these: FMN input: 0 or 200 uM; Eterna round: R93 (includes R88 designs). Put shortly:
(§1)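 Designed RNA switches were made by on-chip transcription from Illumina sequencing clusters and then titrated with SNAP-549-labelled MS2 coat protein. Twofold steps ran from 0.7 or 1.5 nM to 3 µM, each lasting 0.8–1.5 h early and 10–20 min late, in 100 mM Tris-HCl pH 7.5, 80 mM KCl, 4 mM MgCl2, without or with constant ligand. Apparent KD is the per-design median of normalised cluster binding-curve fits.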

For data set [2], the system named is MS2 coat protein. The experiment in a line: apparent KD of MS2 coat protein, switch OFF state (with FMN for OFF switches, without FMN for ON switches); designed switch direction (-1 OFF switch, 1 ON switch): -1; higher = weaker reporter binding. The conditions noted are these: FMN input: 0 or 200 uM; Eterna round: R93 (includes R88 designs). In a few lines:
as §1

“AACAGGUUAGGAUAUAUGUAACAAAUAAAAAAAAUAUAAACAUAGAAGGAACAUGAGGAUCACCCAUGUUAACA [May 29]”: the “apparent KD of MS2 coat protein” value in data set [1] was found to be 29.7 nM; in data set [2] it was 19.4 nM.

As for “AACAGUACAGGAUAUACAUGAGGAUCACCCAUGUAAAGGGAAUAAAACUAAAAUAAAAGUAGAAGGGUACUGGA [Moding Maslow revisited (73) 20]”, the “apparent KD of MS2 coat protein” value in data set [1] was 50.9 nM; in data set [2], 92.6 nM.

Take “AACAGUACAGGAUAUACAUGAGGAUCACCCAUGUGAAAAUUAAGUGGCGUACCACAAAGUAGAAGGGUACUGAA [Moding Maslow Revisited (73) 26]”: the entries for the “apparent KD of MS2 coat protein” value in data set [1] and in data set [2] were 27.9 nM and 125 nM, respectively.

“AACAGUACAGGAUAUACAUGAGGAUCACCCAUGUGACAGAAAUAAAACAAAAAUAAAAGUAGAAGGGUACUGGA [Ruby 42]”: the “apparent KD of MS2 coat protein” value amounted to 31 nM in data set [1] and 61.2 nM in data set [2].

Turning to “AACAGUACAGGAUAUACAUGAGGAUCACCCAUGUGGGAAAAAAGAUCGAGAGAUCCAUGUAGAAGGGUACUGGA [JL In the Red 06]”, the results for the “apparent KD of MS2 coat protein” value in data set [1] and in data set [2] were 85.5 nM and 25.6 nM, respectively.

Regarding “AACAUACAUGAGGAUCACCCAUGUCAGGAUAUGCCGGGUUAGAACCAACUAAAAAAACGUAGAAGGGACAAAAA [Bilbo Confounded 5 - Jieux - Exclusion 1]”, the entries for the “apparent KD of MS2 coat protein” value in data set [1] and in data set [2] were 63.3 nM and 46.7 nM, respectively.

Turning to “AACCGACAUGAGGAUCACCCAUGUAAGGAUAUGCAUCCUUCGGCCCGGACCAGAGGAAGCAGAAGGUGCAGGGA [Iscegebia]”, the figures for the “apparent KD of MS2 coat protein” value in data set [1] and in data set [2] were 43.1 nM and 41.2 nM, respectively.

Turning to “AACUAGUCAGGAUAUACGAACAUGUCAAAAGACAUGAAGGGACAUGAGGAUCACCCAUGUAGAAGGGACUAGCA [74%, Web mod - With 2 less G's]”, the “apparent KD of MS2 coat protein” value in data set [1] is 44 nM; in data set [2], 148 nM.

As for “AACUCGUCAGGAUAUGCGCACAGAUAAUACGCUACACAAAUGCAGAAGGGACAUGAGGAUCACCCAUGUAAAUA [JR_Exc004_Sub504]”, the “apparent KD of MS2 coat protein” value in data set [1] came out at 42.6 nM; in data set [2], 31.2 nM.

As for “AACUGACAUGAGGAUCACCCAUGUCAGGAUAUGACUUCGAAAAAUAAAAUAAACGAUGUCAGAAGGGACAUGGG [Design 68: Sub-opt O]”, the “apparent KD of MS2 coat protein” value in data set [1] is 21.2 nM; in data set [2], 19 nM.

As for “AACUGACAUGAGGAUCACCCAUGUCAGGAUAUGACUUGACGAAAAAAAACACGUCAUGUCAGAAGGGACAUGAA [Design 88: Sub-opt YB]”, the results for the “apparent KD of MS2 coat protein” value in data set [1] and in data set [2] were 15 nM and 16.9 nM, respectively.

For the sequence “AACUGACAUGAGGAUCACCCAUGUCAGGAUAUGAUAUGUAAAAAAAUAAAAAUACUUAUCAGAAGGGACAUGGG [Design 39: Sub-opt A]”, the results for the “apparent KD of MS2 coat protein” value in data set [1] and in data set [2] were 18.2 nM and 20 nM, respectively.

Take “AACUGACAUGAGGAUCACCCAUGUCAGGAUAUGCUUCAUAAAAACAAACAAAAAUGAUGCAGAAGGGACAUGGA [Design 30 :P Sub-opt 6]”: the “apparent KD of MS2 coat protein” value in data set [1] worked out at 19.6 nM; in data set [2] it was 32.3 nM.

For “AACUGGUGAGGAUAUCUGGAUAGGAAAAAGAAAACCUAUCCAGAGAAGGCACAUGAGGAUCACCCAUGUAAAAA [JL cataway mod 9]”, the “apparent KD of MS2 coat protein” value in data set [1] was 56 nM; in data set [2] it was 51.9 nM.

As for “AAGAAACAUGAGGAUCACCCAUGUGAGGAUAUACAAAAGAAAAGAAAAGAAAGAAGAAGUAGAAGGCACAAAGG [Djedkare Shemai]”, the figures for the “apparent KD of MS2 coat protein” value in data set [1] and in data set [2] were 22.5 nM and 20.3 nM, respectively.

Regarding “AAGAAACAUGAGGAUCACCCAUGUGAGGAUAUCGAAAAGAAAAGAAAAGAAAGAAGAAUGAGAAGGCACAAAGG [Shed—]”, the “apparent KD of MS2 coat protein” value in data set [1] was 30.9 nM; in data set [2], 29.8 nM.

In the case of “AAGAAACAUGAGGAUCACCCAUGUGAGGAUAUUCAAGAAAGAAAGAAAGAAAGAAGAAGAAGAAGGCACAAAGG [Lucius Seius Strabo]”, the “apparent KD of MS2 coat protein” value in data set [1] was 29 nM; in data set [2], 32 nM.

Take “AAGAACCAAGGAUAUACAAAAUAAAAGAAAAGAAAGAAAGAACAUGAGGAUCACCCAUGUAGAAGGUGGAAGAA [Khaankhre Sobekhotep]”: the “apparent KD of MS2 coat protein” value is 47.7 nM in data set [1] and 41.6 nM in data set [2].

For the sequence “AAGAACCAAGGAUAUACAUGAGGAUCACCCAUGUAAAAGAAAGAAGGGAAAGAGAAAAGUAGAAGGUGGAAGAA [Djedkaure Shebitku]”, the “apparent KD of MS2 coat protein” value in data set [1] was determined as 28.3 nM; in data set [2], 22.7 nM.

As to “AAGAACGAAGGAUAUACAUGAGGAUCACCCAUGUAAAAGAAAGAAAGGGAAAAGAAAAGUAGAAGGUCGAAGAA [Sekhemkheperre Osorkon I]”, the entries for the “apparent KD of MS2 coat protein” value in data set [1] and in data set [2] were 28.3 nM and 31.2 nM, respectively.

For the origin of these results see the supplement of paper PMC9170038.
